Reference: US20240132578A1

Experiments:
Assay in all cases: cell-based or functional assay
[1] = biological target: HIV-1 Env of isolate 98CN006 (pseudovirus) (HIV-1)
[2] = biological target: HIV-1 Env of isolate 98CN009 (pseudovirus) (HIV-1)
[3] = biological target: HIV-1 Env of isolate MGRM-A-001 (pseudovirus) (HIV-1)
[4] = biological target: HIV-1 Env of isolate MGRM-AE-002 (subtype AE) (HIV-1)
[5] = biological target: HIV-1 Env of isolate MGRM-AE-008 (subtype AE) (HIV-1)
[6] = biological target: HIV-1 Env of isolate MGRM-AG-005 (subtype AG) (HIV-1)
[7] = biological target: HIV-1 Env of isolate MGRM-AG-013 (subtype AG) (HIV-1)
[8] = biological target: HIV-1 Env of isolate MGRM-C-002 (HIV-1)
[9] = biological target: HIV-1 Env of pseudovirus isolate MGRM-C-023 (clade C) (HIV-1)
[10] = biological target: HIV-1 JR-CSF Env I307A (HIV-1 (isolate JR-CSF, clade B)) (UniProt P20871)
[11] = biological target: HIV-1 MGRM-AG-005 envelope protein (Env) on pseudovirus (HIV-1)
[12] = biological target: HIV-1 MGRM-C-027 Env (HIV-1)
[13] = biological target: HIV-1 CMU02 envelope (Env) on pseudovirus (HIV-1)
[14] = biological target: HIV-1 Env of isolate 92TH021 (CRF01_AE) (HIV-1)
[15] = biological target: HIV-1 Env of isolate 92UG005 (clade D pseudovirus) (HIV-1)
[16] = biological target: HIV-1 Env of isolate 92UG037 (clade A pseudovirus) (HIV-1)
[17] = biological target: HIV-1 Env of isolate 92UG046 (clade D pseudovirus) (HIV-1)
[18] = biological target: HIV-1 Env of isolate MGRM-D-004 (clade D pseudovirus) (HIV-1)
[19] = biological target: HIV-1 Env of isolate MGRM-D-019 (clade D pseudovirus) (HIV-1)
[20] = biological target: HIV-1 Env of isolate MGRM-D-022 (clade D pseudovirus) (HIV-1)
[21] = biological target: HIV-1 Env of isolate NL43, clade B (HIV-1)
[22] = biological target: HIV-1 Env of isolate PVO.4 (Acute), clade B (HIV-1)
[23] = biological target: HIV-1 Env of pseudovirus MGRM-F1-004 (clade F) (HIV-1)
[24] = biological target: HIV-1 Env of pseudovirus MGRM-F1-020 (clade F) (HIV-1)
[25] = biological target: HIV-1 Env of pseudovirus MGRM-G-017 (HIV-1)
[26] = biological target: HIV-1 MGRM-G-001 Env (pseudovirus) (HIV-1)
[27] = biological target: HIV-1 envelope glycoprotein (Env) of isolate MGRM-C-002 (HIV-1)
[28] = biological target: HIV-1 envelope glycoprotein (Env) of isolate MGRM-C-009 (HIV-1)
[29] = biological target: HIV-1 envelope glycoprotein (Env) of isolate MGRM-C-014 (HIV-1)
[30] = biological target: HIV-1 envelope glycoprotein (Env) of isolate MGRM-C-020 (HIV-1)

| Substance | neutralization IC50 [13] | IC90 (neutralization of pseudovirus) [14] | IC50, pseudovirus neutralization [15] | IC50 (µg/ml), pseudovirus neutralization [16] | IC50, pseudovirus neutralization [17] | IC50, pseudovirus neutralization [18] | IC50, pseudovirus neutralization [19] | IC50, pseudovirus neutralization [20] | IC50 (µg/ml), pseudovirus neutralization [21] | IC50 (µg/ml), pseudovirus neutralization [22] | IC50 [23] | IC50 [24] | IC50 (µg/ml), pseudovirus neutralization [25] | IC50 (µg/ml), pseudovirus neutralization [26] | IC50 (µg/ml), pseudovirus neutralization [27] | IC50 (µg/ml), pseudovirus neutralization [28] | IC50 (µg/ml), pseudovirus neutralization [29] | IC50 (µg/ml), pseudovirus neutralization [30] | other results |
| --- | --- | --- | --- | --- | --- | --- | --- | --- | --- | --- | --- | --- | --- | --- | --- | --- | --- | --- | --- |
| 5147_N06 (PGT-130) (antibody) | – | – | – | – | – | – | – | – | – | – | – | – | – | – | – | – | – | – | IC50 (µg/mL), pseudovirus neutralization [1]: 0.258 µg/mL; IC50 (µg/mL), pseudovirus neutralization [2]: 0.136 µg/mL; IC50 (µg/mL), pseudovirus neutralization [3]: > 50 µg/mL; IC50, pseudovirus neutralization [4]: 1.53 µg/mL; IC50, pseudovirus neutralization [5]: > 50 µg/mL; IC50, pseudovirus neutralization [6]: 0.54 µg/mL; IC50, pseudovirus neutralization [7]: 0.01 µg/mL; IC50 (µg/mL), pseudovirus neutralization [8]: > 50 µg/mL; IC50, pseudovirus neutralization [9]: 0.151 µg/mL; Fold IC50 increase relative to wild-type [10]: 1000 fold; IC50 (ug/mL), pseudovirus neutralization [11]: 0.947 µg/mL; IC50, pseudovirus neutralization [12]: 0.0052 µg/mL |
| 2F5 (antibody) | 0.38 µg/mL | 18.8 µg/mL | 8.61 µg/mL | 3.24 µg/mL | > 50 µg/mL | 2.3 µg/mL | 0.14 µg/mL | 8.45 µg/mL | 2.02 µg/mL | > 50 µg/mL | 4.31 µg/mL | 0.59 µg/mL | 0.6 µg/mL | 4.1 µg/mL | 44.7 µg/mL | > 50 µg/mL | > 50 µg/mL | > 50 µg/mL | – |
| 2G12 (antibody) | > 50 µg/mL | > 50 µg/mL | > 50 µg/mL | 45.2 µg/mL | > 50 µg/mL | > 50 µg/mL | > 50 µg/mL | > 50 µg/mL | 0.49 µg/mL | 0.8 µg/mL | > 50 µg/mL | > 50 µg/mL | > 50 µg/mL | > 50 µg/mL | > 50 µg/mL | > 50 µg/mL | > 50 µg/mL | 18.6 µg/mL | – |
| 1495_C14 (PGC14) (antibody) | > 50 µg/mL | – | > 50 µg/mL | > 50 µg/mL | > 50 µg/mL | > 50 µg/mL | > 50 µg/mL | > 50 µg/mL | 40 µg/mL | > 50 µg/mL | > 50 µg/mL | > 50 µg/mL | > 50 µg/mL | > 50 µg/mL | > 50 µg/mL | > 50 µg/mL | > 50 µg/mL | > 50 µg/mL | – |
| 1443_C16 (PG16) (TCN-116) (antibody) | > 50 µg/mL | 23.4 µg/mL | > 50 µg/mL | 0.01 µg/mL | 1.42 µg/mL | 0.01 µg/mL | 0.01 µg/mL | > 50 µg/mL | 0.02 µg/mL | 5.43 µg/mL | 0.43 µg/mL | 4.35 µg/mL | 0.02 µg/mL | 0.15 µg/mL | 28.3 µg/mL | > 50 µg/mL | > 50 µg/mL | > 50 µg/mL | – |
| 5136_H01 (PGT-131) (antibody) | – | – | – | – | – | – | – | – | – | – | – | – | – | – | – | – | – | – | IC50 (µg/mL), pseudovirus neutralization [1]: 35.3 µg/mL; IC50 (µg/mL), pseudovirus neutralization [2]: 4.05 µg/mL; IC50 (µg/mL), pseudovirus neutralization [3]: > 50 µg/mL; IC50, pseudovirus neutralization [4]: > 50 µg/mL; IC50, pseudovirus neutralization [5]: > 50 µg/mL; IC50, pseudovirus neutralization [6]: 1.04 µg/mL; IC50, pseudovirus neutralization [7]: 0.03 µg/mL; IC50 (µg/mL), pseudovirus neutralization [8]: > 50 µg/mL; IC50, pseudovirus neutralization [9]: 0.143 µg/mL; Fold IC50 increase relative to wild-type [10]: > 170 fold |
| b12 (antibody) | 4.25 µg/mL | > 50 µg/mL | > 50 µg/mL | > 50 µg/mL | 0.07 µg/mL | > 50 µg/mL | > 50 µg/mL | 17.6 µg/mL | 0.17 µg/mL | > 50 µg/mL | > 50 µg/mL | > 50 µg/mL | > 50 µg/mL | > 50 µg/mL | > 50 µg/mL | > 50 µg/mL | > 50 µg/mL | > 50 µg/mL | – |
| 4E10 (antibody) | 0.59 µg/mL | 23.5 µg/mL | 7.46 µg/mL | 8.84 µg/mL | 12.2 µg/mL | 1.58 µg/mL | 0.04 µg/mL | 16.9 µg/mL | 4.67 µg/mL | 18.3 µg/mL | 2.74 µg/mL | 0.66 µg/mL | 1.14 µg/mL | 2.04 µg/mL | 18.2 µg/mL | 0.56 µg/mL | 2.48 µg/mL | 2.8 µg/mL | – |
